According to patent US20240245799A1, “PREPARATION METHOD FOR ANTIBODY-DRUG CONJUGATE, AND APPLICATION” (priority 2021, published 2024):

Key:
[1] = system: NCI-H2170, LK-2 and MDA-MB-231 tumor cells; test: In vitro cytotoxic activity test, overall statements on the tumor cells of Table 1; type: cell-based, human; conditions: statement on Table 1
Protocol: Human lung squamous carcinoma cell NCI-H2170 and LK-2, and human breast cancer cell MDA-MB-231 were selected as the cell lines for in vitro activity detection in this experiment. The expression profile of the TROP2 antigen on the surfaces of the above human tumor cells (represented by rMFI) was determined by flow cytometry (FACS). At the same time, the dose-effect profiles of Antibody Conjugate 13, DS-1062a (the control drug, prepared according to the method described in U.S. Ser. No. 11/173,213B2), the hIgG-deruxtecan conjugate and the hIgG-A-11 conjugate on cell killing were observed. The final concentrations of the antibody drug conjugates after addition were designed as a series of 9 concentrations from […] with 500 nM as the initial concentration. The changes in killing (or inhibition) over 120 hours were observed. Chemiluminescence staining (Luminescent Cell Viability Assay) was carried out, and IC50 was calculated after reading the […] data.

[2] = system: Human lung squamous carcinoma cells NCI-H2170; test: In vivo anti-tumor experiment, subcutaneous NCI-H2170 xenograft; set-up: species or system female nude mice; conditions: single dose of 5 mg/kg intravenously on day 0, FIG. 28
Protocol: The efficacy of the combination of the present invention can be measured in vivo, i.e., an allograft or xenograft of cancer cells was implanted in rodents, and the tumors were treated with the combination. Test mice were treated with drugs or controls and monitored for several weeks or longer to measure the time to tumor doubling, log cell killing, and tumor inhibition.
Human lung squamous carcinoma cells NCI-H2170 (ATCC) were suspended in physiological saline. 4×10^7 cells were subcutaneously transplanted into the right flank of female nude mice, which were randomized into groups on day 6. Taking the grouping day as day 0, Antibody Conjugate 13, DS-1062a (the positive control drug) and the hIgG-A-11 conjugate as a negative control group were administered intravenously to the tail at a dose of 5 mg/kg respectively on day 0.

B1: DS-1062a (conjugate, chains of the INN, looked up)
VH: QVQLVQSGAEVKKPGASVKVSCKASGYTFTTAGMQWVRQAPGQGLEWMGWINTHSGVPKYAEDFKGRVTISADTSTSTAYLQLSSLKSEDTAVYYCARSGFGSSYWYFDVWGQGTLVTVSS
VL: DIQMTQSPSSLSASVGDRVTITCKASQDVSTAVAWYQQKPGKAPKLLIYSASYRYTGVPSRFSGSGSGTDFTLTISSLQPEDFAVYYCQQHYITPLTFGQGTKLEIK
modifications: deruxtecan payload
Q: Which “inhibition of tumor cell proliferation / in vitro anti-tumor activity” value [1] does the source give for B1 here?
A: could inhibit tumor cell proliferation significantly

Q: What about the “in vivo anti-tumor activity” value [2] of the same molecule?
A: showed anti-tumor activity
